Assay: yeast display, Sf9 membrane polyspecificity reagent, FACS + sequencing; frameworks hold sequencing errors
Method in brief: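 Galactose-induced (36–48 hours) yeast carrying a synthetic nanobody display library were exposed to 10% biotinylated, detergent-solubilized Sf9 membrane reagent at 4 °C for 1 hour. FACS followed streptavidin microbead enrichment, using low and high (top ~1%) gates for expression (anti-HA) and reagent binding (streptavidin). Colony PCR, MiSeq 2 × 250 sequencing and CDR-length filtering followed. Labels for polyreactivity reflect the gate of origin.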
For “QVQLVESGGGLDQAGGSLRLSCAASGSIYWNNAMGWYRQAPRKERELDAAISKSGTRTYYADSVKGRFTISRDNAKNTVYLQMNSLKPEDTAVYYCNALLSDSGTYAGDDYWGQGTQVTVSS”, the “polyreactivity (PSR sort gate)” value was “high polyreactivity”.
For “QVQLVESGGGLDQAGGSLRLSCAASGSTFFKYAMGWYRQAPAKERELVAAISQNGGSTYYADSVKGRFTISRDNAKNTVYFQMNSLNPEDTAVYYCATGPNSYDYWGQGNQVTVSS”, the “polyreactivity (PSR sort gate)” value was “high polyreactivity”.
With “QVQLVESGGGLDQAGGSLRLSCAASGSTFTRNAMRWYRQAPGKERELVATISSGGSTNYADSVKGRFTISRDNAKNTVYLQMNSLKPEDTAVYYCAKRSLYSYYYWGQGTQVTVSS” the “polyreactivity (PSR sort gate)” value was “high polyreactivity”.
For “QVQLVESGGGLDQAGGSLRLSCAASGSTFYYNAMGWYRQAPGKERELVAAISSDGSTNYADSVKGRFTISRDNAKNTVYLQMNSLKPEDTAVYYCAKKDFYFAPSPGYYRSRDYWGQGTQVTVSS”, the “polyreactivity (PSR sort gate)” value was “low polyreactivity”.
For “QVQLVESGGGLDQAGGSLRLSCAASGTTFRNNAMGWYRQAPGKERELVAVITGDGGSTYYADSVKGRFTISRDNAKNTVYLEMNSLKPEDTAVYYCNARSIRYSRFRQRFGYWGQGTQVTVSS”, the “polyreactivity (PSR sort gate)” value was “low polyreactivity”.
For “QVQLVESGGGLDQAGGSLRLSCAASGVNAMGWYRQAPGKEREFVAAITSIGGSTYYADSVKGRFTISRDNAKNTVYLQMNRLKPEDTAVYYCNPDSGPVKVSPLYESWGQGTQVTVSS”, the “polyreactivity (PSR sort gate)” value was “low polyreactivity”.
For “QVQLVESGGGLDQAGGSLRLSCAASRSTFPHYAMGWYRQAPGKERELVAAIYSTGGSTYYADSVKGRFTISRDNAKNTVYLQMNSLKPEDTAVYYCAASRLYWGQGNQVTVSS”, the “polyreactivity (PSR sort gate)” value was “high polyreactivity”.
For “QVQLVESGGGLDQAGGSLRLSCAGSGSIFTSYAMGWDIQAPGKERELVAAISQSGGDTYYADSVKGRFTISRDNAKNTVYLQMNSLKPEDTAVYYCAASVWYYPMDYWGQGTQVTVSS”, the “polyreactivity (PSR sort gate)” value was “low polyreactivity”.
With “QVQLVESGGGLDQAGGSLRLSGAASGRILWYNAMGWYRQAPGKERELVAAISWTGGSTYYADSVKGRFTISRDNAKNTVYLQMNSLKPEDTAVYYCNVDTPYTQGFDQRQGYTFDYWGQGTQVTVSS” the “polyreactivity (PSR sort gate)” value was “low polyreactivity”.
With “QVQLVESGGGLDQAGGSLRLSGAASGSIFDNAMGWYSQAPGKERELVAAITSGGITNYADSVKGRFTISRDNAKNTVYLQMNSLKPEDTAVYYCNTLSPTQTKYDYWGQGTQVTVSS” the “polyreactivity (PSR sort gate)” value was “low polyreactivity”.
In the case of “QVQLVESGGGLDQAGGSLRLSSAASGRTFYYYAMGWYRKAPGKERELVAAITRSGGSTYYADSVKGRFTISRDNAKNTFYLQMNSLKPEDTAVYYCAVQVRPNSGGTRIHRGGYDYWGQGTQVTVSS”, the “polyreactivity (PSR sort gate)” value is reported as “low polyreactivity”.
For “QVQLVESGGGLDQAGGSLRLSWAASGFTFVPYAMGWYRQAPGKERNLVARITGGGGNTYYADSVKGRFTISRDNAKNTVYLQMISLKPEDTAVYYCAADYTNWKTCSNEMYYWGQGTQVTVSS”, the “polyreactivity (PSR sort gate)” value was “low polyreactivity”.
With “QVQLVESGGGLDQAGGSLRLSWAASGGIFIYNAMGWYRQPPGKEREVVAAINISGGNTYYADSVKGRFTISRDNAKNTVYLQMNSLKPEDTAVYYCAARYASSWWIRYYFWGQGTQVTVSS” the “polyreactivity (PSR sort gate)” value was “high polyreactivity”.
In the case of “QVQLVESGGGLDQAGGSLRLTCAASGFTFTIYAMGWYRQAPGKERELVATISGRAGRTYYADSVMGRFTISRDNAKNTVSLQMTSLKPEDTAVYYCNAGQWRYPGLYYYWGQGTQVNVSS”, the “polyreactivity (PSR sort gate)” value is reported as “high polyreactivity”.
With “QVQLVESGGGLDQAGGSLRLTCAASGNTFRSYAMGWSRQAPGKEREFVAAISLSGGNTYYADSVKGRFTISRDNAKNTVYVQMNSLKPEDTAVYYCAADYEYSGYGYWGQGTQVTVSS” the “polyreactivity (PSR sort gate)” value was “high polyreactivity”.
With “QVQLVESGGGLDQAGGSLRLTCAASGSTFYLYDMGWYRQAPGKERELVAVISWSGGSTSYADSVKGRFTISSDNAKNTVYLHMNSLTPEDTAVYYCAAAIGVYYIDYRYLGTVEYWGQGTQVTVSS” the “polyreactivity (PSR sort gate)” value was “low polyreactivity”.
In the case of “QVQLVESGGGLDQAGGTLRISCAASGSIFAPNAMSWNRQAPGKERELVAAITYSGTSTYADSVKGRFTISRDNAKNTVYLQMNSLKPEDTAVYYCAAEGSGVYYHSYDYWGQGTQVTVSS”, the “polyreactivity (PSR sort gate)” value is reported as “low polyreactivity”.
With “QVQLVESGGGLDQAGRSLRLSCAASGLIFTDYTMGWYRQAPGKERELVATISTGGRTFYADSVKGRFTISRDNAKNTVYLQMNSLKPEDTAVYYCAKDQPGRAGFLFTPGLVDYDYWGQGTQVTVSS” the “polyreactivity (PSR sort gate)” value was “low polyreactivity”.
In the case of “QVQLVESGGGLDQARGSLRLSCAASGRTFWTNVMGWYRQAPGKERELVAAITSSTDSTYYADSVKGRFTISLDNAKNTVYLQMNSLKPEDTAVYYCATVVRLYRGRYRYDYWGQGTQVTVSS”, the “polyreactivity (PSR sort gate)” value is reported as “high polyreactivity”.
For “QVQLVESGGGLDQARGSLRLSCAASGSIFWKYAMGWYRQAPWKERELVAAISRSSSTTYYADSVKGRFTISRDNAKNTVYLQMNSLKPEDTAVYYCAAYYRSRVSDDYWGQGTQVTVSS”, the “polyreactivity (PSR sort gate)” value was “high polyreactivity”.
With “QVQLVESGGGLDQARGSLRLSCAASGSTLAVYAIGWYRQAPGKEREFVAAISWSGVSTYYADSVKGRFTISLDNAKNTVYLQMNSLKPEDTAVYDCAAKRVRALYGGSEGGYWGQGTQVTVSS” the “polyreactivity (PSR sort gate)” value was “low polyreactivity”.
For “QVQLVESGGGLDQSGGSLRISCAASGSTFYRNAMGWYRQAPGKEREFVAAITTDDSTYYADSVKGRFTISRDNAKNTVYLQMNSLKPEDTAVYYCAAGLEGKATWAAVGGYDYWGQGTQVTVSS”, the “polyreactivity (PSR sort gate)” value was “low polyreactivity”.
For “QVQLVESGGGLFHAGGRLRLSCAASGRIFGRYDMGWSIQAPGKERELVASISTGGGGTYYADSVKGRFTISRDNAKNTVYLQMNSLKPEDTAVYYCAKAWRGFWTKYDYWGQGTQVTVSS”, the “polyreactivity (PSR sort gate)” value was “low polyreactivity”.
In the case of “QVQLVESGGGLFHAGGSLRLSCAASGRIFYNYAMGWSRQAPGKERELVAAISGSGGSTYYADSVKGRFTISRDNAKNTVYLQMNSLKPDDTAVYYCSTSGPQYYSRNFDYWGQGTQVTVSS”, the “polyreactivity (PSR sort gate)” value is reported as “low polyreactivity”.
For “QVQLVESGGGLFHAGGSLRLSFAASGSILYNAMGWYRQAPGKERELVAAIDSTSVDTYYADSVKGRFTISRDNAKNTVYLQMNSLKPEDTAVYYCSADYVYDDEGDFWGQGTQVTVSS”, the “polyreactivity (PSR sort gate)” value was “high polyreactivity”.
For “QVQLVESGGGLFKAGGSLRLSCAASGSIFRYYTMGWYRQAPGKERELVAAINGSGGSTYYADSVKGRFTISRDNAKNTVYLQMNSLKPEDTAVYYCNRVTKEYGLRQYYYWGQGTQVTVSS”, the “polyreactivity (PSR sort gate)” value was “low polyreactivity”.
With “QVQLVESGGGLFQAGGSLRISCAASGRTFWYYAMGWYRPAPGKERELVAAITRGTSTYADSVKGRYTISRDNAKNTVYLQMNSLKPEDTAVYYCATYFRVWYRSYDYWGQGTQVTVSS” the “polyreactivity (PSR sort gate)” value was “high polyreactivity”.
In the case of “QVQLVESGGGLFQAGGSLRLICAASGFIFGWYDMGWYRQAPGKERELVAAIDSGGSTNYADSVKGRFTISRDNAKYTVYLQMNSLKPEDTAVYYCAADHHDVWTEYYYWGHGTQVTVSS”, the “polyreactivity (PSR sort gate)” value is reported as “low polyreactivity”.
In the case of “QVQLVESGGGLFQAGGSLRLICAASGRTFVVYAMGSYRQAPGKEWELVAAISWSGGRTYYADSVKGRFTMSRDNAKNTVYLQMNTLKPEDTAVYYCPAEVYLYKYVYYYWGQGTQVTVSS”, the “polyreactivity (PSR sort gate)” value is reported as “high polyreactivity”.
With “QVQLVESGGGLFQAGGSLRLSCAASGFTFARYAMGWYRQAPGKEWELVARISWSGGSTYYADSVKGRFTISRDYAKNTFYLQMYSLKPQVTEVYYCAADGWYYRYPRDDYWGQGTQVTVSS” the “polyreactivity (PSR sort gate)” value was “low polyreactivity”.

— the nanobody polyreactivity screen of Harvey et al. (2022)
